The source of these data is patent US20240209084A1 (CYTOARM, published 2024).

Test [1] addresses T1, CD19 (human, UniProt P15391 20-556).
T1 construct: whole, on cells; also called CD19^+ B cell lymphoma (Raji)
T1 sequence (looked up): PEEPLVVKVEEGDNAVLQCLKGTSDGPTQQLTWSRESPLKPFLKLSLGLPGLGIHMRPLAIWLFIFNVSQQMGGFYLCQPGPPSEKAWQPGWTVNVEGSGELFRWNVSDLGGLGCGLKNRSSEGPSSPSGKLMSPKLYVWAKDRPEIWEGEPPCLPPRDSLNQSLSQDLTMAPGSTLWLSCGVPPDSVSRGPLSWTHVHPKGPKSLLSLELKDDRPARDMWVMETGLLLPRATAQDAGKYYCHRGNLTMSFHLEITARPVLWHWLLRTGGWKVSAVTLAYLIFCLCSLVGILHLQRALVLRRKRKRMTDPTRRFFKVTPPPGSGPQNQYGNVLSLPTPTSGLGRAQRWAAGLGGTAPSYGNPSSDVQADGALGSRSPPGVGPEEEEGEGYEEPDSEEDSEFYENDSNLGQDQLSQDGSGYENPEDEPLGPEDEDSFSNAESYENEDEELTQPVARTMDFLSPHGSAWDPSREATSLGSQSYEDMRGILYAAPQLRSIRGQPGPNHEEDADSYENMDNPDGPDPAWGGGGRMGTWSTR
The experiment in a line: flow cytometry on Raji cells (CD19+), FITC goat anti-human IgG Fab.
Description: (§1) Samples were analyzed with FITC conjugated Goat anti-Human IgG Fab antibody and flow cytometry.

Another test deals with T2, PSMA (human, UniProt Q04609 1-750).
T2 construct: whole, on cells; also called prostate-specific membrane antigen; PSMA^+ Prostate cancer (LNCaP)
The experiment in a line: flow cytometry on LNCaP cells (PSMA+), FITC goat anti-human IgG Fab. For orientation: A flow cytometer gives signals particle by particle.

Test [2] addresses T1, CD19. Description: flow cytometry titration on Raji cells (CD19+), FITC goat anti-human IgG Fab.
Description: (§2) FIG. 19B: binding activity to CD19⁺ B cells lymphoma (Raji). […] Fluorescent signal on cell surface was detected using flow cytometry.
(§3) Binding abilities of the BsAbs against CD3⁺ T cells (Jurkat) and CD19⁺ B cells lymphoma (Raji) were analyzed using flow cytometry.
A further test concerns the target T3, CD3 (human, UniProt P07766 23-207).
T3 construct: whole, on cells; CD3 is a multi-chain complex; also called CD3 on CD3-positive T cells; CD3^+ T cells (Jurkat)
Description: flow cytometry titration on Jurkat cells (CD3+), FITC goat anti-human IgG Fab.

T2 sequence (Q04609 whole entry): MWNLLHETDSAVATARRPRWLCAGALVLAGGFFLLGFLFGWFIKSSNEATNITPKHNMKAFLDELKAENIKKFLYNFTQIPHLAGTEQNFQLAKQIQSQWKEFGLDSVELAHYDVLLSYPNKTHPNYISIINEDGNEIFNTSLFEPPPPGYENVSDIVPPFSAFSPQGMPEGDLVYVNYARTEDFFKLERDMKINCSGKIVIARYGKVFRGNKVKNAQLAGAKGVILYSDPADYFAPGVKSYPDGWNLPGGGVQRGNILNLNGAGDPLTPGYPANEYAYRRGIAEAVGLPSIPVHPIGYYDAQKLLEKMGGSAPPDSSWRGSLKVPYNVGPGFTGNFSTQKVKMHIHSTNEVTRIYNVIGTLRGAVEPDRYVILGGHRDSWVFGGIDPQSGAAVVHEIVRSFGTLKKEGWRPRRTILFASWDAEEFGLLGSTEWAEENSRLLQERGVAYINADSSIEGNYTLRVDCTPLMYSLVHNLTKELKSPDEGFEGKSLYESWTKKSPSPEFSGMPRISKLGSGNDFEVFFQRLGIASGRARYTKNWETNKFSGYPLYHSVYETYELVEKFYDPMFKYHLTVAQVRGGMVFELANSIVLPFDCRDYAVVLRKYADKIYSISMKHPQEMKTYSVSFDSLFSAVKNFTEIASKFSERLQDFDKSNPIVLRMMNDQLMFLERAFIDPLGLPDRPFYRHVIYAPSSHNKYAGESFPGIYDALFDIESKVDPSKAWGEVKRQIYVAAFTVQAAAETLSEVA
T3 sequence (P07766 23-207): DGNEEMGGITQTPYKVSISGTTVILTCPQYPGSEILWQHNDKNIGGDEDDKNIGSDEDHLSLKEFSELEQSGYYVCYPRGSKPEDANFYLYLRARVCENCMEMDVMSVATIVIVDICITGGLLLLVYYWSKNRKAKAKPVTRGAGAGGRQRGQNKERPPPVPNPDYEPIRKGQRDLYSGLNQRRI
Description for CD3: as §2, §3
Description for PSMA: as §1

B1: CTA03Fab/CTAT02scFv (bispecific antibody)
heavy: EVQLLESGGGLVQPGGSLRLSCAASGFTFSSFPMAWVRQAPGKGLEWVSTISTSGGRTYYRDSVKGRFTISRDNSKNTLYLQMNSLRAEDTAVYYCAKFRQYSGGFDYWGQGTLVTVSSASTKGPSVFPLAPSSKSTSGGTAALGCLVKDYFPEPVTVSWNSGALTSGVHTFPAVLQSSGLYSLSSVVTVPSSSLGTQTYICNVNHKPSNTKVDKKVEPKSCGGGSGGGEVKLQESGPGLVAPSQSLSVTCTVSGVSLPDYGVSWIRQPPRKGLEWLGVIWGSETTYYNSALKSRLTIIKDNSKSQVFLKMNSLQTDDTAIYYCAKHYYYGGSYAMDYWGQGTSVTVSSGGGGSGGGGSGGGGSDIQMTQTTSSLSASLGDRVTISCRASQDISKYLNWYQQKPDGTVKLLIYHTSRLHSGVPSRFSGSGSGTDYSLTISNLEQEDIATYFCQQGNTLPYTFGGGTKLEIT
light: DIQLTQPNSVSTSLGSTVKLSCTLSSGNIENNYVHWYQLYEGRSPTTMIYDDDKRPDGVPDRFSGSIDRSSNSAFLTIHNVAIEDEAIYFCHSYVSSFNVFGGGTKLTVLRQPKAAPSVTLFPPSSEELQANKATLVCLISDFYPGAVTVAWKADSSPVKAGVETTTPSKQSNNKYAASSYLSLTPEQWKSHRSYSCQVTHEGSTVEKTVAPTECS
notes: also called anti-CD3Fab/anti-CD19scFv; parent CTA03Fab/CTAT02scFv BsAb
With B1, the binding result with CD19 [1] is listed as “binds”.

B2: CTA03Fab/CTAT05scFv (bispecific antibody)
heavy: EVQLLESGGGLVQPGGSLRLSCAASGFTFSSFPMAWVRQAPGKGLEWVSTISTSGGRTYYRDSVKGRFTISRDNSKNTLYLQMNSLRAEDTAVYYCAKFRQYSGGFDYWGQGTLVTVSSASTKGPSVFPLAPSSKSTSGGTAALGCLVKDYFPEPVTVSWNSGALTSGVHTFPAVLQSSGLYSLSSVVTVPSSSLGTQTYICNVNHKPSNTKVDKKVEPKSCGGGSGGGEVQLVQSGAEVKKPGASVKISCKTSGYTFTEYTIHWVKQASGKGLEWIGNINPNNGGTTYNQKFEDRATLTVDKSTSTAYMELSSLRSEDTAVYYCAAGWNFDYWGQGTTVTVSSGGGGSGGGGSGGGGSDIVMTQSPSSLSASVGDRVTITCKASQDVGTAVDWYQQKPGKAPKLLIYWASTRHTGVPDRFTGSGSGTDFTLTISSLQPEDFADYFCQQYNSYPLTFGGGTKLEIK
light: DIQLTQPNSVSTSLGSTVKLSCTLSSGNIENNYVHWYQLYEGRSPTTMIYDDDKRPDGVPDRFSGSIDRSSNSAFLTIHNVAIEDEAIYFCHSYVSSFNVFGGGTKLTVLRQPKAAPSVTLFPPSSEELQANKATLVCLISDFYPGAVTVAWKADSSPVKAGVETTTPSKQSNNKYAASSYLSLTPEQWKSHRSYSCQVTHEGSTVEKTVAPTECS
notes: also called antiCD3Fab/anti-PSMAscFv
B2: the binding result with PSMA is given as “binds”.

B3: CTA03-01Fab/CTAT02-02scFv (bispecific antibody)
heavy: EVQLLESGGGLVQPGGSLRLSCAASGFTFSSFPMAWVRQAPGKGLEWVSTISTSGGRTYYRDSVKGRFTISRDNSKNTLYLQMNSLRAEDTAVYYCAKFRQYSGGFDYWGQGTLVTVSSASTKGPSVFPLAPSSKSTSGGTAALGCLVKDYFPEPVTVSWNSGALTSGVHTFPAVLQSSGLYSLSSVVTVPSSSLGTQTYICNVNHKPSNTKVDKKVEPKSCGGGSGGGEVKLQESGPGLVAPSQSLSVTCTVSGVSLPDYGVSWIRQPPRKGLEWLGVIWGSETTYYNSALKSRLTIIKDNSKSQVFLKMNSLQTDDTAIYYCAKHYYYGGSYAMDYWGQGTSVTVSSGGGGSGGGGSGGGGSDIQMTQTTSSLSASLGDRVTISCRASQDISKYLNWYQQKPEGTVKLLIYHTSRLHSGVPSRFSGSGSGTDYSLTISNLEQEDIATYFCQQGNTLPYTFGGGTKLEIT
light: DIQLTQPNSVSTSLGSTVKLSCTLSSGNIENNYVHWYQLYEGRSPTTMIYDDDKRPDAVPDRFSGSIDRSSNSAFLTIHNVAIEDEAIYFCHSYVSSFNVFGGGTKLTVLRQPKAAPSVTLFPPSSEELQANKATLVCLISDFYPGAVTVAWKADSSPVKAGVETTTPSKQSNNKYAASSYLSLTPEQWKSHRSYSCQVTHEGSTVEKTVAPTECS
notes: also called CTA03Fab(VLG58A)/CTAT02scFv(VLD41E)
For B3, the 50% effective concentration (EC50 (read off the curve)) – broadly, the concentration giving half of the maximal effect – with CD19 [2] is ~1 µg/mL.

B4: CTA03-02Fab/CTAT02-02scFv (bispecific antibody)
heavy: EVQLLESGGGLVQPGGSLRLSCAASGFTFSSFPMAWVRQAPGKGLEWVSTISTSGGRTYYRDSVKGRFTISRDNSKNTLYLQMNSLRAEDTAVYYCAKFRQYSGGFDYWGQGTLVTVSSASTKGPSVFPLAPSSKSTSGGTAALGCLVKDYFPEPVTVSWNSGALTSGVHTFPAVLQSSGLYSLSSVVTVPSSSLGTQTYICNVNHKPSNTKVDKKVEPKSCGGGSGGGEVKLQESGPGLVAPSQSLSVTCTVSGVSLPDYGVSWIRQPPRKGLEWLGVIWGSETTYYNSALKSRLTIIKDNSKSQVFLKMNSLQTDDTAIYYCAKHYYYGGSYAMDYWGQGTSVTVSSGGGGSGGGGSGGGGSDIQMTQTTSSLSASLGDRVTISCRASQDISKYLNWYQQKPEGTVKLLIYHTSRLHSGVPSRFSGSGSGTDYSLTISNLEQEDIATYFCQQGNTLPYTFGGGTKLEIT
light: DIQLTQPNSVSTSLGSTVKLSCTLSSGNIENNYVHWYQLYEGRSPTTMIYDDDKRPEGVPDRFSGSIDRSSNSAFLTIHNVAIEDEAIYFCHSYVSSFNVFGGGTKLTVLRQPKAAPSVTLFPPSSEELQANKATLVCLISDFYPGAVTVAWKADSSPVKAGVETTTPSKQSNNKYAASSYLSLTPEQWKSHRSYSCQVTHEGSTVEKTVAPTECS
notes: also called CTA03Fab(VLD57E)/CTAT02scFv(VLD41E)
In the case of B4, in the test with CD19 [2], the binding result is “binds”. For the same molecule, the “EC50 (read off the curve)” value with CD3 was ~0.2 µg/mL.

B5: CTA03-01Fab/CTAT02-01scFv (bispecific antibody)
heavy: EVQLLESGGGLVQPGGSLRLSCAASGFTFSSFPMAWVRQAPGKGLEWVSTISTSGGRTYYRDSVKGRFTISRDNSKNTLYLQMNSLRAEDTAVYYCAKFRQYSGGFDYWGQGTLVTVSSASTKGPSVFPLAPSSKSTSGGTAALGCLVKDYFPEPVTVSWNSGALTSGVHTFPAVLQSSGLYSLSSVVTVPSSSLGTQTYICNVNHKPSNTKVDKKVEPKSCGGGSGGGEVKLQESGPGLVAPSQSLSVTCTVSGVSLPDYGVSWIRQPPRKGLEWLGVIWGSETTYYNSALKSRLTIIKDNSKSQVFLKMNSLQTDDTAIYYCAKHYYYGGSYAMDYWGQGTSVTVSSGGGGSGGGGSGGGGSDIQMTQTTSSLSASLGDRVTISCRASQDISKYLNWYQQKPDATVKLLIYHTSRLHSGVPSRFSGSGSGTDYSLTISNLEQEDIATYFCQQGNTLPYTFGGGTKLEIT
light: DIQLTQPNSVSTSLGSTVKLSCTLSSGNIENNYVHWYQLYEGRSPTTMIYDDDKRPDAVPDRFSGSIDRSSNSAFLTIHNVAIEDEAIYFCHSYVSSFNVFGGGTKLTVLRQPKAAPSVTLFPPSSEELQANKATLVCLISDFYPGAVTVAWKADSSPVKAGVETTTPSKQSNNKYAASSYLSLTPEQWKSHRSYSCQVTHEGSTVEKTVAPTECS
notes: also called CTA03Fab(VLG58A)/CTAT02scFv(VLG42A)
Regarding B5, in the test with CD19 [2], the binding result is listed as “binds”.

B6: CTA03-02Fab/CTAT02-01scFv (bispecific antibody)
heavy: EVQLLESGGGLVQPGGSLRLSCAASGFTFSSFPMAWVRQAPGKGLEWVSTISTSGGRTYYRDSVKGRFTISRDNSKNTLYLQMNSLRAEDTAVYYCAKFRQYSGGFDYWGQGTLVTVSSASTKGPSVFPLAPSSKSTSGGTAALGCLVKDYFPEPVTVSWNSGALTSGVHTFPAVLQSSGLYSLSSVVTVPSSSLGTQTYICNVNHKPSNTKVDKKVEPKSCGGGSGGGEVKLQESGPGLVAPSQSLSVTCTVSGVSLPDYGVSWIRQPPRKGLEWLGVIWGSETTYYNSALKSRLTIIKDNSKSQVFLKMNSLQTDDTAIYYCAKHYYYGGSYAMDYWGQGTSVTVSSGGGGSGGGGSGGGGSDIQMTQTTSSLSASLGDRVTISCRASQDISKYLNWYQQKPDATVKLLIYHTSRLHSGVPSRFSGSGSGTDYSLTISNLEQEDIATYFCQQGNTLPYTFGGGTKLEIT
light: DIQLTQPNSVSTSLGSTVKLSCTLSSGNIENNYVHWYQLYEGRSPTTMIYDDDKRPEGVPDRFSGSIDRSSNSAFLTIHNVAIEDEAIYFCHSYVSSFNVFGGGTKLTVLRQPKAAPSVTLFPPSSEELQANKATLVCLISDFYPGAVTVAWKADSSPVKAGVETTTPSKQSNNKYAASSYLSLTPEQWKSHRSYSCQVTHEGSTVEKTVAPTECS
notes: also called CTA03Fab(VLD57E)/CTAT02scFv(VLG42A)
For B6, the binding result with CD19 [2] was “binds”.
